For data set [1], the system named is 5HT2C receptor. Put plainly: Thermostability of 5HT2C receptor bound to agonist SCH23390. The class given is physicochemical, human. The procedure:
An alanine scan has been carried out on the 5HT2C receptor in the presence of the agonist SCH23390 in order to stabilise the agonist conformation. Similar to A2A, it appears that mutating L2.46 (L95 in 5HT2C) to alanine confers significant stability on this receptor increasing the Tm of the receptor by 5.4° C. (FIG. 7). It is notable that in addition to L95, mutating the nearby M93 (two residues away from L2.46) to alanine also confers stability to the agonist bound receptor, resulting in an increase of 2.9° C.
(§1) A2AR-(2-316) expression was carried out by using the pRG/III-hs-MBP E. coli expression vector and DH5α cells. Cells were grown at 37° C. in 2 L flasks containing 500 mL of 2×TY medium supplemented with Ampicillin (100 μg/mL) and glucose (0.2% w/v). At OD600≈0.7, IPTG and theophylline were added at final concentrations respectively of 0.5 mM and 100 μM, and the temperature was reduced to 20° C. After 22 to 24 hours, cells were harvested in aliquots of 14 mL, centrifuged for 30 min and stored at −20° C. Both 5HT2C and M4 receptors were transiently expressed in HEK293T cells using GeneJuice transfection reagent used according to the manufacturers guidelines.
(§2) 5HT2C receptor was solubilised from transiently transfected mammalian cells in 50 mM Hepes pH7.4, 100 mM KCl, 0.5% DDM (0.1% CHS/0.6% CHAPS was added to cells for SCH23390 agonist assay). Tm analysis was performed directly on the soluble lysate. The Tm was determined by incubating 108 μl of the lysate with [N^6-methyl-^3H]Mesulergine radioligand at a final concentration of 17 nM or 9 nM [^3H]SCH23390 for one hour at 4° C. The six ligand incubations are then incubated at six different temperatures from 25° C. to 55° C., for thirty minutes. Receptor bound and free radioligand were separated using a 96-well plate gel filtration assay.
5HT2C receptor was solubilised from transiently transfected mammalian cells about 40 hours post transfection, in 50 mM Hepes pH7.4/100 mM KCl/0.5% DDM/(0.1% CHS/0.6% CHAPS was added to cells for SCH23390 agonist assay) and protease inhibitor. Cell lysates were left at 4° C. on a rotator and then cleared by centrifugation at 13,200 rpm for 20 minutes at 4° C. Thermostability analysis was performed directly on the soluble lysate. The Tm was determined by incubating 108 μl of the lysate with [N^6-methyl-^3H]Mesulergine radioligand at a final concentration of 17 nM or 9 nM [^3H]SCH23390 for one hour at 4° C. The six ligand incubations are then incubated at six different temperatures from 25° C. to 55° C., for thirty minutes. Receptor bound and free radioligand were separated using G25 Sephadex spin columns.

For data set [2], the target named is T1, 5HT2C receptor (Homo sapiens, UniProt P28335, L95A).
T1 construct: made in house
T1 sequence (P28335 33-458 L95A): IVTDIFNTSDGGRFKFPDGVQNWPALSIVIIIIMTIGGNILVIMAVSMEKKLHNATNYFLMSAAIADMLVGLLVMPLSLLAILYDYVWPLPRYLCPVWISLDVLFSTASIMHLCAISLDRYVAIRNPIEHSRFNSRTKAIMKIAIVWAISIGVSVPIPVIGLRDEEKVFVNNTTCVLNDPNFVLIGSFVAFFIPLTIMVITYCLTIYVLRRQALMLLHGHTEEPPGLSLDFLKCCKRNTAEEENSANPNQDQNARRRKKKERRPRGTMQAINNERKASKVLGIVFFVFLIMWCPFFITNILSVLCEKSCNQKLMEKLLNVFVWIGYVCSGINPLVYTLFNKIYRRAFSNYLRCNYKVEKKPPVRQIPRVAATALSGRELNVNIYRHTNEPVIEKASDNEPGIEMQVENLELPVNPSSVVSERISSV
Put plainly: Thermostability of 5HT2C receptor bound to antagonist mesulergine. To be noted: antagonist bound 5HT2C, data not shown. The class given is physicochemical. The procedure:
as §1, §2

The subject of data set [3] is 5HT2C receptor. The description is as above. The class given is physicochemical, human. To be noted: bound to antagonist (mesulergine). As to the method:
as §1, §2

The target of data set [4] is T2, 5HT2C receptor (Homo sapiens, UniProt P28335, S94A).
T2 construct: made in house
T2 sequence (P28335 33-458 S94A): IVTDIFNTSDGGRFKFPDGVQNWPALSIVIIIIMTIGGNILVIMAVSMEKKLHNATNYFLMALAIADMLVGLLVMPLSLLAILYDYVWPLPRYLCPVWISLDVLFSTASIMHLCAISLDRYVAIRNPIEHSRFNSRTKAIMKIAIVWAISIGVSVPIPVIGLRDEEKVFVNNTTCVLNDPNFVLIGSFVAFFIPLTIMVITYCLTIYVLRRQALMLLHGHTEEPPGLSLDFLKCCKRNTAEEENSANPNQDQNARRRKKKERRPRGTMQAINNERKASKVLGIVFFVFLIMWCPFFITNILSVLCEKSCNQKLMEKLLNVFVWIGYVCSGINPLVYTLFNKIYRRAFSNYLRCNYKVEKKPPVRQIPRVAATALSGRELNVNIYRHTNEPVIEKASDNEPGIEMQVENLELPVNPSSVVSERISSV
The description is as above. To be noted: antagonist bound, versus parent 5HT2C. It is filed as physicochemical. As to the method:
as §1, §2

For a further data set, the target named is T3, A2A receptor (Homo sapiens, UniProt P29274, N284A).
T3 construct: A2AR-(2-316) expression was carried out by using the pRG/III-hs-MBP E. coli expression vector; MBP (named only in the vector name); made in house
Put plainly: Two point thermostability measurement, NECA binding to A2A alanine scan mutants in DDM. It is filed as physicochemical. To be noted: 4° C. versus destabilising temperature such as 30° C. The procedure:
In the A2A agonist-bound study the effect of mutations from the alanine scan were determined initially by two point thermostability measurements. In these experiments, the wild type receptors and receptors containing single mutants were solubilised in the detergent DDM and the amount of NECA binding retained at 4° C. and at a destabilising temperature such as 30° C. was determined. A>10% increase in agonist binding to the mutant receptor compared to the wild type receptor at the destabilising temperature is considered to be significant and is indicative of an increase in thermostability.

For data set [5], the target named is neurotensin receptor NTS1 (Rattus norvegicus, UniProt P20789, Y369A). Put plainly: Two point thermostability assay, neurotensin agonist binding to NTS1 alanine scan mutants. It is filed as physicochemical. An excerpt:
An alanine scan has been carried out on the rat neurotensin receptor NTS1 in the presence of the agonist neurotensin in order to stabilise the agonist conformation.

B1: L95A: 5HT2C receptor mutant, L2.46 (L95 in 5HT2C) to alanine (protein, UniProt P28335 33-458, looked up, variant L95A)
5-hydroxytryptamine receptor …: IVTDIFNTSDGGRFKFPDGVQNWPALSIVIIIIMTIGGNILVIMAVSMEKKLHNATNYFLMSAAIADMLVGLLVMPLSLLAILYDYVWPLPRYLCPVWISLDVLFSTASIMHLCAISLDRYVAIRNPIEHSRFNSRTKAIMKIAIVWAISIGVSVPIPVIGLRDEEKVFVNNTTCVLNDPNFVLIGSFVAFFIPLTIMVITYCLTIYVLRRQALMLLHGHTEEPPGLSLDFLKCCKRNTAEEENSANPNQDQNARRRKKKERRPRGTMQAINNERKASKVLGIVFFVFLIMWCPFFITNILSVLCEKSCNQKLMEKLLNVFVWIGYVCSGINPLVYTLFNKIYRRAFSNYLRCNYKVEKKPPVRQIPRVAATALSGRELNVNIYRHTNEPVIEKASDNEPGIEMQVENLELPVNPSSVVSERISSV
Turning to B1, the “increase of Tm” value in the data set with 5HT2C receptor [1] (agonist SCH23390 bound, versus parent 5HT2C) turned out to be 5.4 °C. The Tm in the data set with 5HT2C receptor [1] (bound to agonist SCH23390) was 48.8 °C. Also, in the data set with 5HT2C receptor [2], the “effect on thermal stability” value was “did not confer any stability”.

B2: S94A: 5HT2C receptor mutant, S94 to alanine (protein, UniProt P28335 33-458, looked up, variant S94A)
5-hydroxytryptamine receptor …: IVTDIFNTSDGGRFKFPDGVQNWPALSIVIIIIMTIGGNILVIMAVSMEKKLHNATNYFLMALAIADMLVGLLVMPLSLLAILYDYVWPLPRYLCPVWISLDVLFSTASIMHLCAISLDRYVAIRNPIEHSRFNSRTKAIMKIAIVWAISIGVSVPIPVIGLRDEEKVFVNNTTCVLNDPNFVLIGSFVAFFIPLTIMVITYCLTIYVLRRQALMLLHGHTEEPPGLSLDFLKCCKRNTAEEENSANPNQDQNARRRKKKERRPRGTMQAINNERKASKVLGIVFFVFLIMWCPFFITNILSVLCEKSCNQKLMEKLLNVFVWIGYVCSGINPLVYTLFNKIYRRAFSNYLRCNYKVEKKPPVRQIPRVAATALSGRELNVNIYRHTNEPVIEKASDNEPGIEMQVENLELPVNPSSVVSERISSV
With B2, the Tm in the data set with 5HT2C receptor [3] came out at 48.9 °C. For the same molecule, the “increase of Tm” value with 5HT2C receptor [4] was 11.76 °C.

B3: N284: adenosine A2A receptor alanine scan mutant of Asparagine 284 (protein, listed as Homo sapiens)
chain: MPIMGSSVYITVELAIAVLAILGNVLVCWAVWLNSNLQNVTNYFVVSLAAADIAVGVLAIPFAITISTGFCAACHGCLFIACFVLVLTQSSIFSLLAIAIDRYIAIRIPLRYNGLVTGTRAKGIIAICWVLSFAIGLTPMLGWNNCGQPKEGKNHSQGCGEGQVACLFEDVVPMNYMVYFNFFACVLVPLLLMLGVYLRIFLAARRQLKQMESQPLPGERARSTLQKEVHAAKSLAIIVGLFALCWLPLHIINCFTFFCPDCSHAPLWLMYLAIVLSHTNSVVAPFIYAYRIREFRQTFRKIIRSHVLRQQEPFKAAGTSARVLAAHGSDGEQVSLRLNGHPPGVWANGSAPHPERRPNGYALGLVSGGSAQESQGNTGLPDVELLSHELKGVCPEPPGLDDPLAQDGAGVS
As to B3, in the data set with A2A receptor, the “thermostability (agonist binding at the destabilising temperature compared to wild type)” value is “increased thermostability”.

B4: Y369: rat neurotensin receptor NTS1 mutant, residue 7.53 (Y369) to alanine (protein, listed as Rattus norvegicus)
chain: MHLNSSVPQGTPGEPDAQPFSGPQSEMEATFLALSLSNGSGNTSESDTAGPNSDLDVNTDIYSKVLVTAIYLALFVVGTVGNSVTAFTLARKKSLQSLQSTVHYHLGSLALSDLLILLLAMPVELYNFIWVHHPWAFGDAGCRGYYFLRDACTYATALNVASLSVERYLAICHPFKAKTLMSRSRTKKFISAIWLASALLAIPMLFTMGLQNRSGDGTHPGGLVCTPIVDTATVKVVIQVNTFMSFLFPMLVISILNTVIANKLTVMVHQAAEQGRVCTVGTHNGLEHSTFNMTIEPGRVQALRHGVLVLRAVVIAFVVCWLPYHVRRLMFCYISDEQWTTFLFDFYHYFYMLTNALFYVSSAINPILANLVSANFRQVFLSTLACLCPGWRHRRKKRPTFSRKPNSMSSNHAFSTSATRETLY
Consider B4, for which the “thermostability (agonist binding at the destabilising temperature compared to wild type)” value in data set [5] is given as “increased agonist binding compared to the wild type receptor”.

(Values after US8703915B2, “Mutant proteins and methods for producing them” (Heptares Therapeutics Limited, priority 2009, dated 2014).)
